Test results: paper PMC9458455 (Nucleic Acids Research, 2022)
Values belong to the binder of their own block, whether it stands above or below them.

Key:
[1] = molecular target: T1, translation elongation factor eEF1Bβ, full-length (human), P29692; assay: AUC; conditions: remark: other sources report otherwise
T1 chain: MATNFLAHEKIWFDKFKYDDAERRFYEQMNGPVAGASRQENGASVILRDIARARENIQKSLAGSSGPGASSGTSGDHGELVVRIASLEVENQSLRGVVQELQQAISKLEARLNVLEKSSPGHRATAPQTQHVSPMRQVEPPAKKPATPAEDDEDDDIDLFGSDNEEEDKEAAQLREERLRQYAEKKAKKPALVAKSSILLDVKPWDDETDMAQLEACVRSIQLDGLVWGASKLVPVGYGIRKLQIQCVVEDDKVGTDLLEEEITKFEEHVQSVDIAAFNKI

[2] = molecular target: T1, translation elongation factor eEF1Bβ, …; assay: AUC; conditions: remark: other sources report otherwise
[3] = molecular target: T1, translation elongation factor eEF1Bβ, …; assay: AUC; conditions: remark: other sources report otherwise
[4] = molecular target: eEF1B(αβγ)3 complex, reconstituted from full-length eEF1Bα, eEF1Bβ and eEF1Bγ (human, UniProt P24534 1-225; P29692 1-281; P26641 1-437); assay: native gel or EMSA
Sequence of eEF1B(αβγ)3 complex, reconstituted from full-length eEF1Bα, eEF1Bβ and eEF1Bγ (P24534 whole entry, chain 1 of 2): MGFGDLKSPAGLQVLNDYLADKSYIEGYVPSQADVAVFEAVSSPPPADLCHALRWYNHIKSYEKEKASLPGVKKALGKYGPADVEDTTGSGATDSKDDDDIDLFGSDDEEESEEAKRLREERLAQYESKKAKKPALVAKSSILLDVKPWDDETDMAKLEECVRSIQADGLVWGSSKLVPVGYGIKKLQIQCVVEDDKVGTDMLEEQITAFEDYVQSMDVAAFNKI
Sequence of eEF1B(αβγ)3 complex, reconstituted from full-length eEF1Bα, eEF1Bβ and eEF1Bγ (P26641 whole entry, chain 3 of 2): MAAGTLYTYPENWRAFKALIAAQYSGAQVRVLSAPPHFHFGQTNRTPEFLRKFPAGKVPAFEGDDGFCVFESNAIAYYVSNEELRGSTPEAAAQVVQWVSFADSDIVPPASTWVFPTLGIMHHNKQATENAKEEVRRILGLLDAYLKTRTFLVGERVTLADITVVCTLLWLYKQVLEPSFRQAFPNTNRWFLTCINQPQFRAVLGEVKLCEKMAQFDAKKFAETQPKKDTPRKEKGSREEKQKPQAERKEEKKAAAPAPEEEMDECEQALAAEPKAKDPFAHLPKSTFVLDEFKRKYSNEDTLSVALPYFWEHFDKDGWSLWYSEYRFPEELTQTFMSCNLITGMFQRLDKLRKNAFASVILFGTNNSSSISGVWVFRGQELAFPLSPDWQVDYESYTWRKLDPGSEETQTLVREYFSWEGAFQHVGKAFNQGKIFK

stoichiometry N [1]: 3
stoichiometry N [2]: 3
stoichiometry N [3]: 3
B1: translation elongation factor eEF1Bβ, full-length, P29692 1-281 (natural protein)
chain: T1 chain

stoichiometry N [4]: 6
B2: translation elongation factor eEF1A2 (natural protein, UniProt Q05639 1-463, looked up)
chain: MGKEKTHINIVVIGHVDSGKSTTTGHLIYKCGGIDKRTIEKFEKEAAEMGKGSFKYAWVLDKLKAERERGITIDISLWKFETTKYYITIIDAPGHRDFIKNMITGTSQADCAVLIVAAGVGEFEAGISKNGQTREHALLAYTLGVKQLIVGVNKMDSTEPAYSEKRYDEIVKEVSAYIKKIGYNPATVPFVPISGWHGDNMLEPSPNMPWFKGWKVERKEGNASGVSLLEALDTILPPTRPTDKPLRLPLQDVYKIGGIGTVPVGRVETGILRPGMVVTFAPVNITTEVKSVEMHHEALSEALPGDNVGFNVKNVSVKDIRRGNVCGDSKSDPPQEAAQFTSQVIILNHPGQISAGYSPVIDCHTAHIACKFAELKEKIDRRSGKKLEDNPKSLKSGDAAIVEMVPGKPMCVESFSQYPPLGRFAVRDMRQTVAVGVIKNVEKKSGGAGKVTKSAQKAQKAGK
